Results taken from patent US20110265198.

Columns and labels:
Assay in all cases: cell_activity
ZFN 25096 (synthetic) = settings: pair with 18473; Cel-I assay
ZFN 18473 (synthetic) = settings: pair with 25096 (26.5% with 18477); Cel-I assay
ZFN 18477 (synthetic) = settings: pair with 18473; Cel-I assay

Q: For “CTAGAAAGACTGGAGTTGCAGATCACGA (double strand) [25096 target]”, which activity (ZFN 25096 (synthetic)) is on record?
A: The activity was 35.7 % NHEJ.

Q: With “GATGGGCGGGAGTCTTCTGGGCAGGCTT (double strand) [18473 target]” as the sequence, how does the activity (ZFN 18473 (synthetic)) read?
A: The activity was 35.7 % NHEJ.

Q: Which activity (ZFN 18477 (synthetic)) does the source give for “CTAGAAAGACTGGAGTTGCAGATCACGA (double strand) [18477 target]” here?
A: The activity was 26.5 % NHEJ.
